Values joined by “and” are separate entries in the source; they are usually repeats but may differ in a detail not shown here. Identical values can stand only once. *1 amine or outer side, *2 acyl side, *3 side chain or, on linkers, in order; H or OH if unused. Bridges are numbered along the chain shown (N, C = ends). Roman numbers before positions name the chains, in order. Where no end group is shown, it is not given here. [ ]: non-standard residue; d: D form. branched linker from compound 8 (carries γGlu-hexadecanedioic acid) = not defined here; d(γGlu) = O=C(O)[C@@H](CCC(=O)[*:2])N[*:1]; Bip = N[C@@H](Cc1ccc(-c2ccccc2)cc1)C(=O)O; PEG8 = NCCOCCOCCOCCOCCOCCOCCOCCOCCC(=O)O; NMeF = CN[C@@H](Cc1ccccc1)C(=O)O; Ahp(2) = CCCCC[C@H](N)C(=O)O

One test has as its target CD38 (human) (UniProt P28907). Put plainly: ELISA; larger values represent binding.
In test [1] the target is T1, CD38 (human, UniProt P28907 1-300). Put plainly: cell-based or functional assay.
Test [2] has as its target T1, CD38. Put plainly: ternary binding, flow cytometry: PE-labelled human IgG1k recruited to Daudi cells. How it is done:
Various technologies can be utilized to assess and/or characterize recruitment of antibodies to target cells, e.g., cancer cells. One such assay is a ternary binding assay. An exemplary protocol is described herein. Compounds were diluted in DMSO (MP 191418) to 1000× the starting concentration used in the assay into a 96 well polypropylene plate (Corning 3357). They were then serially diluted in ½ log increments to generate 8-12 concentrations in DMSO (assay dependent). These DMSO stocks were then step diluted 1/100 into PBS (VWR Cat. #20012043). Step diluted compound range was then added into the polypropylene assay plate 1/10 the volume of the assay volume. […] The cells were then added into the polypropylene plate with the step diluted compounds and incubated at 37° C. for 30 min. At the end of the incubation, the cells were centrifuged and washed 2× with How buffer containing 0.5% Tween 20 (BP337-500). Samples were analyzed on a BD FacsCelesta. Mean fluorescence was analyzed using Graphpad Prism and curves were fit using log(inhibitor) vs. response—Variable slope (four parameters).
A general note: In flow cytometry, cells or beads pass a laser one at a time.

Test [3] concerns the target CD38 on Daudi cells (human) (UniProt P28907). In words: ternary binding, flow cytometry: Daudi cells + PE human IgG1k.
For test [4], the target named is CD38 on Daudi cells (ATCC CCL-213) (human) (UniProt P28907). In words: cell-based or functional assay.
The target in test [5] is T2, CD38 (human, UniProt P28907 43-300, limits assumed).
T2 construct: also called cluster of differentiation 38; cyclic ADP ribose hydrolase
Put plainly: ELISA; larger values represent binding. In general terms: ELISA stands for enzyme-linked immunosorbent assay.

Test [6] deals with T1, CD38. Put plainly: cell-based or functional assay. The source holds these as a separate data set.

“Ala Arg Ahp Tyr His Asp Gly Val Leu Bph Ahp Asp Cys (SEQ ID NO.1) (peptide)” returned a Binding Assay (ELISA signal) in the test with CD38 (human) of 1.97.
The same measure, in the same setting: then “Ala Leu His MePhe Val Leu Pro Bph Val Trp Val Cys (SEQ ID NO.2) (peptide)”, with 1.69.

B1: I-27 (peptide)
peptide 1: ARXYHDGVLXXDC
peptide 2: DCAWHLGELVWCT
modifications: not fully specified; Cys2-Cys12 disulfide; N-terminus extended by D-Glu(side chain amide of 12-aminododecanoic acid)-PEG6-; X3 and X11 = Ahp ((S)-2-aminoheptanoic acid), X10 = Bph (4-biphenylylalanine); N-terminal -C(O)CH2- (from 2-bromoacetic acid) thioether-linked to S of Cys13; C-terminus carries PEG10 linker
For the molecule B1, the “EC50 (nM), ADCC reporter cells” value with CD38 [1] amounted to 3 nM. Further, the IC50 (as a rule, the concentration needed to halve the response being measured) with CD38 [2] was found to be 6 nM. In test [3], the MFI at 0.03 nM is 2140 and 3880; the MFI at 0.1 nM is 2880 and 2430; the MFI at 0.3 nM was 3560 and 3190; the MFI at 1 nM was 3130 and 2450. In test [3], the MFI at 3 nM is 3950 and 3970; the MFI at 10 nM is 3320 and 9770; the MFI at 30 nM was 7880 and 8230; the MFI at 100 nM was 11500 and 10800. Moreover, in test [3], the MFI at 300 nM is 7180 and 11100; the MFI at 3000 nM is 3940 and 5160. Moreover, in test [4], the % dead cells at 1 nM is 5.6% and 5.7%; the % dead cells at 3 nM was 8.2% and 7.7%; the % dead cells at 10 nM was 7.9% and 8.3%; the % dead cells at 30 nM is 9.4% and 10.3%. In addition, in test [4], the % dead cells at 100 nM is 10.3% and 9.1%; the EC50 (nM), killing of target cells stood at 2.4 nM.

B2: I-39 (peptide)
peptide 1: ARXYHDGVLXXDC
peptide 2: DCAWHLGELVWCT
modifications: Cys2-Cys12 disulfide; N-terminus extended by hydrazinecarbonyl (urea from Boc-NH-NH2 and CDI)-PEG6-; X3 and X11 = Ahp ((S)-2-aminoheptanoic acid), X10 = Bph (4-biphenylylalanine); N-terminal -C(O)CH2- (from 2-bromoacetic acid) thioether-linked to S of Cys13; C-terminus carries PEG10 linker
Consider B2, for which the “EC50 (nM), ADCC reporter cells” value in the test with CD38 [1] amounted to 0.61 nM. This molecule displayed an IC50 with CD38 [2] of 3.3 nM. Besides, in test [3], the MFI at 0.03 nM was 5280 and 4130; the MFI at 0.1 nM was 6760 and 4610; the MFI at 1 nM is 4580 and 5160; the MFI at 3 nM was 6080 and 8740. Moreover, in test [3], the MFI at 10 nM is 5300 and 7840; the MFI at 30 nM was 9350 and 9460; the MFI at 100 nM is 16400 and 17300; the MFI at 300 nM is 12200 and 16900. Further, in test [3], the MFI at 1000 nM is 9710 and 12000; the MFI at 3000 nM is 10100 and 15000. In addition, in test [4], the % dead cells at 0.03 nM stood at 11%; the % dead cells at 0.3 nM was 11.9% and 12.1%; the % dead cells at 1 nM was 15.7% and 16.5%; the % dead cells at 3 nM was 17.7% and 15.9%. For the same molecule, in test [4], the % dead cells at 10 nM was 22.4% and 21.4%; the % dead cells at 30 nM is 22.7% and 22.2%; the % dead cells at 100 nM was 23.4% and 25.4%; the % dead cells at 300 nM is 21.3% and 21.5%.

B3: A L H MeF V L P Bph V A V C (peptide)
peptide: ALH[NMeF]VLP[Bip]VAVC
modifications: not fully specified (N-terminus, bridges); printed as A L H MeF V L P Bph V A V C
notes: Alanine variant at position 10
Regarding B3, the “Binding Assay (ELISA signal)” value with CD38 [5] amounted to 0.1.

B4: I-33 (peptide)
peptide 1: ARXYHDGVLXXDC
peptide 2: DCAWHLGELVWCT
modifications: Cys2-Cys12 disulfide; N-terminus extended by PEG8-; X3 and X11 = Ahp ((S)-2-aminoheptanoic acid), X10 = Bph (4-biphenylylalanine); N-terminal -C(O)CH2- (from 2-bromoacetic acid) thioether-linked to S of Cys13; C-terminus carries PEG8 linker
Take B4: the “EC50 (nM), ADCC reporter cells” value in the test with CD38 [1] was found to be 4.3 nM. In the test with CD38 [2], the half-inhibitory concentration (IC50) was 9.3 nM. Also, in test [3], the MFI at 1 nM is 3470 and 3690; the MFI at 3 nM is 3660 and 1850; the MFI at 10 nM was 21100 and 13600; the MFI at 30 nM was determined as 23700. In test [3], the MFI at 100 nM is 31900 and 24200; the MFI at 300 nM was 24100 and 34300; the MFI at 1000 nM was 17400 and 22200; the MFI at 3000 nM was 28400 and 12400. Further, in test [4], the % dead cells at 10 nM is 23.4% and 22.3%; the % dead cells at 30 nM is 28.7% and 28.8%; the % dead cells at 100 nM is 32.8% and 31.3%; the % dead cells at 300 nM was 31.9% and 31.6%. In test [4], the % dead cells at 1000 nM is 22.6% and 23.3%; the % dead cells at 3000 nM was found to be 16.6%; the EC50 (nM), killing of target cells turned out to be 11 nM.

B5: A L H MeF V L P Bph A W V C (peptide)
peptide: ALH[NMeF]VLP[Bip]AWVC
modifications: not fully specified (N-terminus, bridges); printed as A L H MeF V L P Bph A W V C
notes: Alanine variant at position 9
Consider B5, for which the “Binding Assay (ELISA signal)” value in the test with CD38 [5] turned out to be 0.12.

B6: I-28 (peptide)
peptide 1: {‑C(O)CH2‑}-AR[Ahp(2)]YHDGVL[Bip][Ahp(2)]DC-{PEG8-d(γGlu)-d(γGlu)-D‑Glu(side chain amide of 12-aminododecanoic acid)-d(γGlu)-d(γGlu)-Gly-Gly}
peptide 2: DCAWHLGELVWCT
modifications: disulfide II:2-II:12; also: chain 2 joined to the end of the chain 1 linker, thioether at chain A 13 to a chain's N-terminus
As to B6, the “EC50 (nM), ADCC reporter cells” value with CD38 [1] was 14 nM.

B7: I-30 (peptide)
peptide 1: AR[Ahp(2)]YHDGVL[Bip][Ahp(2)]DC-{4‑aminobutanoic acid}
peptide 2: DCAWHLGELVWCT-NH2
modifications: disulfide II:2-II:12; also: thioether at chain A 13 to a chain's N-terminus
For the molecule B7, in the test with CD38 [1], the “EC50 (nM), ADCC reporter cells” value worked out at 12 nM. In addition, in test [4], the % dead cells at 1 nM is 14.3% and 14.7%; the % dead cells at 3 nM was 14.7% and 15.7%; the % dead cells at 10 nM was determined as 14.1%; the % dead cells at 30 nM was 16.3% and 15.3%. In test [4], the % dead cells at 100 nM was 17.1% and 18.1%; the % dead cells at 300 nM was 19% and 20.6%; the % dead cells at 3000 nM is 18.1% and 17.5%; the EC50 (nM), killing of target cells is 175 nM.

B8: A L H MeF V L P Bph V W A C (peptide)
peptide: ALH[NMeF]VLP[Bip]VWAC
modifications: not fully specified (N-terminus, bridges); printed as A L H MeF V L P Bph V W A C
notes: Alanine variant at position 11
On to B8, for which the “Binding Assay (ELISA signal)” value in the test with CD38 [5] is 0.41.

B9: I-32 (peptide)
peptide 1: {‑C(O)CH2‑}-AR[Ahp(2)]YHDGVL[Bip][Ahp(2)]DC-{branched linker from compound 8 (carries γGlu-hexadecanedioic acid)}
peptide 2: DDCAWHLGELVWCT-NH2
modifications: disulfide II:3-II:13; not fully specified (N-terminus); reading uncertain; also: N-terminus of chain 2 amide-bonded to the branched linker (one conjugate), thioether at chain A 13 to a chain's N-terminus via -C(O)-CH2- (from 2-bromoacetic acid)
notes: One covalent conjugate
For B9, the “RLU at 100 nM” value with CD38 [6] worked out at 21800 RLU. Moreover, in the test with CD38 [1], the “EC50 (nM), ADCC reporter cells” value was determined as 63 nM. In the test with CD38 [2], the IC50 was 88 nM. Moreover, in test [3], the MFI at 0.3 nM was 1990 and 1770; the MFI at 1 nM was 2310 and 1770; the MFI at 3 nM was 1690 and 1630; the MFI at 10 nM was 2890 and 1820. In test [3], the MFI at 30 nM is 4350 and 2820; the MFI at 100 nM was 13800 and 19500; the MFI at 300 nM was 26600 and 20600; the MFI at 1000 nM was 28500 and 32400. For the same molecule, the MFI at 3000 nM in test [3] was 23000 and 26100. In test [4], the % dead cells at 1 nM is 14.4% and 13.5%; the % dead cells at 3 nM was 12.8% and 13.5%; the % dead cells at 10 nM was 13% and 13.3%; the % dead cells at 30 nM is 14.7% and 14.3%. Further, in test [4], the % dead cells at 100 nM is 17.7% and 17.2%; the % dead cells at 300 nM was 19.5% and 20.1%; the % dead cells at 1000 nM is 19.7% and 20.4%; the % dead cells at 3000 nM is 16.9% and 16.8%.

B10: I-40 (peptide)
peptide 1: Ac-AR[Ahp(2)]YHDGVL[Bip][Ahp(2)]DCG
peptide 2: GDCAWHLGELVWCT-NH2
modifications: disulfide II:3-II:13; also: C-terminal Gly of chain 1 amide-bonded to N-terminal Gly of chain 2 (one chain), thioether at chain A 13 to a chain's N-terminus
notes: The section is headed I-40, its product is called compound 523; also called compound 523
On to B10, for which the “EC50 (nM), ADCC reporter cells” value in the test with CD38 [1] came to 50 nM. For the same molecule, in the test with CD38 [2], the IC50 was 50 nM. Further, in test [3], the MFI at 0.03 nM is 819 and 477; the MFI at 0.1 nM is 956 and 1170; the MFI at 0.3 nM was 1150 and 1290; the MFI at 1 nM was 1100 and 966. Also, in test [3], the MFI at 3 nM is 900 and 1070; the MFI at 10 nM was 1950 and 1960; the MFI at 30 nM is 2160 and 2640; the MFI at 100 nM was 6090 and 6880. Moreover, in test [3], the MFI at 300 nM is 7340 and 7420; the MFI at 1000 nM is 7290 and 7250; the MFI at 3000 nM is 7330 and 6680. In test [4], this molecule yielded an EC50 (nM), killing of target cells of 1.9 nM.

These data come from US20230028880A1, “CD38-BINDING AGENTS AND USES THEREOF” (Biohaven Therapeutics Ltd., priority 2019, published 2023).
